Data reported in article PMC6615864, “Genetic interactions of G-quadruplexes in humans”.

Columns and labels:
DDX42 [1] = target: T1, DDX42 (Homo sapiens, UniProt Q86XP3 1-938); experiment: ELISA; 100 mM KCl; apparent Kd; ELISA: 50 mM K2HPO4 pH 7.4, 100 mM KCl (or 100 mM LiCl), 3% BSA block, 0.1% Tween-20 washes; blocking at room temperature, DDX42 1 h; 50 nM biotin-oligo coating; oligos annealed in 10 mM Tris-HCl pH 7.4, 100 mM KCl; settings: protein: commercial; tags: N-terminal GST; label: 5' biotin; parallel G4 (CD verified)
T1 sequence: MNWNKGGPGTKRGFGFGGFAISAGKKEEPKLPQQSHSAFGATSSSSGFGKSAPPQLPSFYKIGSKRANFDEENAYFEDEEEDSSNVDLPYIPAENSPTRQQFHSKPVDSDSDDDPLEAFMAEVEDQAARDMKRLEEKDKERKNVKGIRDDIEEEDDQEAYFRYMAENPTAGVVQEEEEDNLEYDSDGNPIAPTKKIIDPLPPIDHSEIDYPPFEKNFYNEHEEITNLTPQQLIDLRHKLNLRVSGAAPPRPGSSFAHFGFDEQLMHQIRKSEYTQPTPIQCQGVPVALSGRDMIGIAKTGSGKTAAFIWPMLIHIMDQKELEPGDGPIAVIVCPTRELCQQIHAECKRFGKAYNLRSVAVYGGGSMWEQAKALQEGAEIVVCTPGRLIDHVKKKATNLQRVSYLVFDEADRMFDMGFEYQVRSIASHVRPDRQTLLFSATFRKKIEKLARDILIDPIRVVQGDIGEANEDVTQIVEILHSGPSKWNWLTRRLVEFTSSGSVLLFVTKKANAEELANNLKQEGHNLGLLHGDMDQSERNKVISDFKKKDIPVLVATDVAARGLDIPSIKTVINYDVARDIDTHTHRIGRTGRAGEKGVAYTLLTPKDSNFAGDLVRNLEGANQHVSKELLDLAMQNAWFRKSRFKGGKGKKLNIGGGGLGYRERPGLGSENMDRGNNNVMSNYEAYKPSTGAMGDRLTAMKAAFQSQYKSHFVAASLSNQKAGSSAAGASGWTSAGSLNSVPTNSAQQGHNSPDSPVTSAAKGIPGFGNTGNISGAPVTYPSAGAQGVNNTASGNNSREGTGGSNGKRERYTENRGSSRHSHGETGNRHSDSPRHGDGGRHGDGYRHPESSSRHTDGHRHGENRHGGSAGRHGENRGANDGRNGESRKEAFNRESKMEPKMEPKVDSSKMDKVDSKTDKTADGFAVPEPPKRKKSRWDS

DDX42 [2] = target: T1, DDX42; experiment: ELISA; not detectable up to 200 nM DDX42; ELISA: 50 mM K2HPO4 pH 7.4, 100 mM KCl (or 100 mM LiCl), 3% BSA block, 0.1% Tween-20 washes; blocking at room temperature, DDX42 1 h; 50 nM biotin-oligo coating; oligos annealed in 10 mM Tris-HCl pH 7.4, 100 mM KCl; settings: protein: commercial, tags: N-terminal GST, label: 5' biotin
DDX42 [3] = target: T1, DDX42; experiment: ELISA; 100 mM KCl; apparent Kd, above the 200 nM top concentration; ELISA: 50 mM K2HPO4 pH 7.4, 100 mM KCl (or 100 mM LiCl), 3% BSA block, 0.1% Tween-20 washes; blocking at room temperature, DDX42 1 h; 50 nM biotin-oligo coating; oligos annealed in 10 mM Tris-HCl pH 7.4, 100 mM KCl; settings: protein: commercial; tags: N-terminal GST; label: 5' biotin; parallel G4 (CD verified)

## UGUGGGAGGGGCGGGUCUGGGUGC (structured_RNA) [NRAS G4 (rG4)]
DDX42 [1]
  Kd: 71.1 ± 3.5 nM

## UGUAGAAAGAGCAGAUCUAGAUG (ssRNA) [NRAS mut (rG4 mut)]
DDX42 [2]; no G4
  binding result: no binding

## ACAGGGCUCCGCGAUGGCGGAGCCCAA (structured_RNA) [Stem loop (RNA hairpin)]
DDX42 [2]; hairpin
  binding result: no binding

## TGAGGGTGGGTAGGGTGGGTAA (structured_DNA) [Myc G4 (dG4)]
DDX42 [3]
  Kd: 233 ± 23.5 nM
